Source: the supplement of paper PMC9112550, “Optimization of the antimicrobial peptide Bac7 by deep mutational scanning” (BMC Biology, 2022)

System: Escherichia coli TOP10
Assay: shrunken log2 fold change of peptide-encoding DNA abundance (4.5 h post-induction vs induction); higher = less antimicrobial activity (less host growth inhibition)
Settings: time post-induction: 4.5 h; library: site-saturation at positions 5, 18, 19, 20
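Further: peptides expressed intracellularly from a pBAD plasmid library in pooled LB shake-flask culture, induced with 0.3% L-arabinose, DNA abundance read by NGS, three biological replicates, DESeq2 with apeglm shrinkage.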

Sequence | shrunken log2 fold change
RRIRYRPPRLPRPRPRPGRMPRP | -0.642
RRIRLRPPRLPRPRPRPSGQPRP | -0.0893
RRIRSRPPRLPRPRPRPAHFPRP | -0.418
RRIRRRPPRLPRPRPRPACKPRP | 0.163
RRIRARPPRLPRPRPRPNHDPRP | -0.141
RRIRDRPPRLPRPRPRPQLFPRP | -0.0901
RRIRKRPPRLPRPRPRPAMVPRP | 0.87
RRIRARPPRLPRPRPRPKCIPRP | 0.0328
RRIRFRPPRLPRPRPRPHEGPRP | 0.0417
RRIRKRPPRLPRPRPRPCWSPRP | 0.00256
RRIRRRPPRLPRPRPRPEPMPRP | 0.882
RRIRDRPPRLPRPRPRPMVAPRP | 0.00167
RRIRARPPRLPRPRPRPMCIPRP | 0.143
RRIRYRPPRLPRPRPRPPGAPRP | 0.397
RRIRWRPPRLPRPRPRPKGGPRP | 0.536
RRIRDRPPRLPRPRPRPICGPRP | 0.0876
RRIRHRPPRLPRPRPRPYLWPRP | 0.0116
RRIRQRPPRLPRPRPRPLKKPRP | -0.15
RRIRWRPPRLPRPRPRPDMPPRP | 0.325
RRIRIRPPRLPRPRPRPIVIPRP | -0.103
RRIRWRPPRLPRPRPRPVDIPRP | 0.101
RRIRGRPPRLPRPRPRPQGVPRP | -0.0465

Sequence | shrunken log2 fold change
RRIRKRPPRLPRPRPRPEQPPRP | 0.328
RRIRGRPPRLPRPRPRPWLEPRP | 0.303
RRIRRRPPRLPRPRPRPDLLPRP | 0.0733
RRIRHRPPRLPRPRPRPPIDPRP | 0.065
RRIRLRPPRLPRPRPRPAANPRP | 0.273
RRIRWRPPRLPRPRPRPLADPRP | 1.06
RRIRWRPPRLPRPRPRPCPRPRP | -0.0457
RRIRKRPPRLPRPRPRPKIRPRP | 0.246
RRIRLRPPRLPRPRPRPWWMPRP | -0.0102
RRIRIRPPRLPRPRPRPVRSPRP | 0.373
RRIRQRPPRLPRPRPRPWVPPRP | -0.152
RRIRMRPPRLPRPRPRPLDNPRP | 0.957
RRIRARPPRLPRPRPRPNWHPRP | 0.163
RRIRARPPRLPRPRPRPCSRPRP | 0.21
RRIRHRPPRLPRPRPRPCDDPRP | -0.0661
RRIRFRPPRLPRPRPRPPQPPRP | 0.795
RRIRQRPPRLPRPRPRPRWTPRP | 0.25
RRIRLRPPRLPRPRPRPVRCPRP | 0.0127
RRIRWRPPRLPRPRPRPHIGPRP | -0.079
RRIRVRPPRLPRPRPRPLGAPRP | 0.352
RRIRNRPPRLPRPRPRPRSHPRP | -0.127
RRIRERPPRLPRPRPRPSVTPRP | -0.4

Sequence | shrunken log2 fold change
RRIRIRPPRLPRPRPRPHLAPRP | 0.0435
RRIRCRPPRLPRPRPRPIQRPRP | 0.0673
RRIRNRPPRLPRPRPRPKVCPRP | -0.0345
RRIRVRPPRLPRPRPRPFPSPRP | -0.127
RRIRCRPPRLPRPRPRPWTQPRP | -0.12
RRIRDRPPRLPRPRPRPQRMPRP | -0.0312
RRIRLRPPRLPRPRPRPVMAPRP | 0.0839
RRIRTRPPRLPRPRPRPGKKPRP | -0.0783
RRIRRRPPRLPRPRPRPLHQPRP | 0.32
RRIRYRPPRLPRPRPRPGTHPRP | -0.678
RRIRMRPPRLPRPRPRPWCAPRP | 0.204
RRIRLRPPRLPRPRPRPIPRPRP | 0.0727
RRIRPRPPRLPRPRPRPQCEPRP | -0.0437
RRIRQRPPRLPRPRPRPYCQPRP | -0.0564
RRIRHRPPRLPRPRPRPLVWPRP | 0.482
RRIRYRPPRLPRPRPRPQHIPRP | -0.754
RRIRPRPPRLPRPRPRPPRGPRP | 0.811
RRIRNRPPRLPRPRPRPHPVPRP | -0.269
RRIRDRPPRLPRPRPRPHRFPRP | 0.0062
RRIRCRPPRLPRPRPRPWASPRP | 0.0212
RRIRRRPPRLPRPRPRPCNTPRP | -0.295
RRIRNRPPRLPRPRPRPHNEPRP | -0.509

Sequence | shrunken log2 fold change
RRIRQRPPRLPRPRPRPHPQPRP | 0.24
RRIRGRPPRLPRPRPRPHCCPRP | 0.0841
RRIRKRPPRLPRPRPRPCQLPRP | -0.0631
RRIRNRPPRLPRPRPRPAHTPRP | 0.121
RRIRRRPPRLPRPRPRPCEFPRP | -0.109
RRIRSRPPRLPRPRPRPIVQPRP | 0.144
RRIRWRPPRLPRPRPRPWNDPRP | 0.0222
RRIRMRPPRLPRPRPRPIIFPRP | -0.0918
RRIRPRPPRLPRPRPRPPYHPRP | -0.226
RRIRRRPPRLPRPRPRPSFEPRP | 0.234
RRIRKRPPRLPRPRPRPSFDPRP | 0.301
RRIRERPPRLPRPRPRPEGQPRP | -0.015
RRIRLRPPRLPRPRPRPYIVPRP | -0.0573
RRIRKRPPRLPRPRPRPVLWPRP | 1.78
RRIRGRPPRLPRPRPRPCYKPRP | -0.295
RRIRMRPPRLPRPRPRPLNCPRP | -0.158
RRIRPRPPRLPRPRPRPKIVPRP | 0.026
RRIRMRPPRLPRPRPRPHVSPRP | -0.0138
RRIRCRPPRLPRPRPRPCPWPRP | -0.0714
RRIRLRPPRLPRPRPRPRYYPRP | -0.103
RRIRDRPPRLPRPRPRPEGHPRP | -0.0429
RRIRQRPPRLPRPRPRPPIRPRP | -0.0146

Sequence | shrunken log2 fold change
RRIRRRPPRLPRPRPRPISRPRP | -0.0551
RRIRIRPPRLPRPRPRPPCVPRP | -0.173
RRIRERPPRLPRPRPRPKKNPRP | -0.0468
RRIRIRPPRLPRPRPRPQDIPRP | -0.461
RRIRWRPPRLPRPRPRPSKYPRP | -0.632
RRIRVRPPRLPRPRPRPHIAPRP | -0.235
RRIRIRPPRLPRPRPRPKCMPRP | -0.229
RRIRRRPPRLPRPRPRPNTAPRP | 0.0812
RRIRWRPPRLPRPRPRPACYPRP | 0.443
RRIRTRPPRLPRPRPRPNTCPRP | -0.395
RRIRYRPPRLPRPRPRPTQSPRP | 0.0623
RRIRVRPPRLPRPRPRPDPIPRP | -0.00485
RRIRQRPPRLPRPRPRPAMIPRP | 0.103
RRIRQRPPRLPRPRPRPSFFPRP | -0.287
RRIRVRPPRLPRPRPRPVSKPRP | -0.249
RRIRCRPPRLPRPRPRPEDAPRP | -0.0302
RRIRVRPPRLPRPRPRPRRWPRP | 0.334
RRIRARPPRLPRPRPRPQHYPRP | -0.474
RRIRLRPPRLPRPRPRPEMAPRP | 0.113
RRIRCRPPRLPRPRPRPDYQPRP | -0.447
RRIRPRPPRLPRPRPRPECGPRP | 0.525
